Key:
[1] = tested on: MBP-#γA (5-finger artificial zinc finger protein) (artificial); assay: EMSA
[2] = tested on: MBP-#γA-opt (5-finger artificial zinc finger protein) (artificial); assay: EMSA
[3] = tested on: gg1 (6-finger artificial zinc finger protein) (artificial); settings: cited from earlier work

Sequence | Kd [1] [nM] | Kd [2] [nM] | Kd [3] [nM]
GATGCCGTTTGAGGT (double strand) [γ-globin promoter #γA target site] | 3.2 | 7.1 | 
GTCAAGGCAAGGCTGGCC (double strand) [gg1 target site in γ-globin promoter] |  |  | 0.7

From article PMC2880176
